Reference: patent US8741844B2, “Use of mutated antithrombins for treating or preventing coagulation disorders” (Universite Paris-Sud XI, priority 2007, dated 2014)

System: pentasaccharide bound plasma antithrombin (plasma anti-factor Xa activity)
Assay: Rotachrom heparin anti factor Xa assay in pentasaccharide containing human plasma (competition with plasma antithrombin for pentasaccharide binding)
Type: biochemical
Conditions: for virtual pentasaccharide concentration (residual anti-factor Xa activity): human plasma pool with 3 μg/ml pentasaccharide; for effect on anti-Xa activity of pentasaccharide containing plasma sample: human plasma, pre-incubation 30 min at 37° C.
Description: Anti factor Xa inhibitory activity of mutated antithrombins AT-R393H(SEQ ID NO: 4), AT-Pro394 (SEQ ID NO: 6), AT-ΔR393-5394 (SEQ ID NO: 18), AT-ΔR393 (SEQ ID NO: 8), AT-ΔS394 (SEQ ID NO: 10), AT-N135Q-R393H(SEQ ID NO: 14), AT-N135Q-Pro394 (SEQ ID NO: 16), AT-N135Q-ΔR393-S394 (SEQ ID NO: 24), AT-N135Q-ΔR393 (SEQ ID NO: 20), AT-N135Q-ΔS394 (SEQ ID NO: 22) is measured in pentasaccharide containing plasma. The plasma concentrations of pentasaccharides are defined on the basis on those measured in patients treated by the pentasaccharide under the conditions of a regular (curative) use of this molecule or in patients presenting an overdose of this drug, knowing that the optimal equilibrium concentration is 1.20-1.26 mg/L and the minimal equilibrium concentration is 0.46-0.62 mg/L during a curative pentasaccharide treatment (monograph, Arixtra®).
The anti factor Xa assay is performed using the Rotachrom® heparin method (Stago) adaptated for absorbance reading on a microplate reader (Dynatech MR 5000), or a STA analyser (Stago).
The procedure consists in mixing 30 μl of pentasaccharide containing plasma sample diluted four times in kinetic buffer, with 75 μl of chromogenic substrate (1 mM, provided in Rotachrom® heparin kit). After 4 min incubation, 75 μl of bovine factor Xa (24 nM, Rotachrom® heparin kit) is added to the plasma-substrate mixture. The factor Xa activity is measured a 405 nm absorbance increase, resulting from cleavage of the chromogenic substrate, using a microplate reader (Dynatech MR 5000). The rate constant (k), proportional to anti-factor Xa activity, is obtained by fitting the substrate hydrolysis curve to equation (3) or (3′).
Firstly, the assay is calibrated in citrated (0.105 M) normal human plasma containing pentasaccharide concentrations ranging from 0 to 3 mg/L. A standard curve is generated and anti-factor Xa activity is expressed as mg of pentasaccharide per liter of plasma.
Secondly, to evaluate the anti factor Xa inhibitory activity of mutated antithrombins, the mutated antithrombin (0-0.6 g/L, preferably 0.15-0.6 g/L, final concentration, in kinetic buffer) is pre-incubated with an equal volume of pentasaccharide (0-3 mg/L, preferably 1-3 mg/L) containing plasma samples, during 30 min at 37° C.
Under these conditions, the mutated antithrombin concentration range from one to four times that of the plasma antithrombin level, which is compatible with a therapeutic use of antithrombin. Indeed, very high doses of mutated antithrombin, with a 5 fold increase in plasma antithrombin level, have already been used during clinical trials without side effects (Leitner J M, Firbas C, Mayr F B, Reiter R A, Steinlechner B, Jilma B., Recombinant human antithrombin inhibits thrombin formation and interleukin 6 release in human endotoxemia. Clin Pharmacol Ther. 2006 January; 79(1):23-34). Anti factor Xa inhibitory activity is then evaluated as previously described.
To estimate whether mutated antithrombin can be used as reversal of pentasaccharide in case of over-dosing, AT-N135Q-R393H(SEQ ID NO: 14) and AT-N135Q-Pro394 (SEQ ID NO: 16) are tested in Rotachrom® heparin assay for their ability to restore factor Xa activity. Under conditions of treatment for prevention of venous thromboembolic events, optimal pentasaccharide concentration ranges between 1.2 and 1.26 μg/mL in plasma. To mimic an over-dosing, pentasaccharide is added to human plasma pool at concentration of 3 μg/ml. Rotachrom® heparin assay is then performed by incubation of plasma over-dosed with pentasaccharide in the presence of mutated antithrombin in a ratio 1/1, 2/1, and 4/1 compared to plasma antithrombin concentration (i.e. 0.15, 0.3, 0.6 g/l). In this ex vivo assay, anti-factor Xa activity is proportional to the amount of pentasaccharide bound natural antithrombin present in tested plasma, which amount is directly proportional to pentasaccharide concentration in plasma. […]

[1] = mutated antithrombin ratio 1/1 to plasma antithrombin (0.15 g/l)

Row | Molecule | effect on anti-Xa activity of pentasaccharide containing plasma sample | also measured
1 | AT-N135Q-R393H: human antithrombin with substitution at 393 by Histidine and at 135 by Glutamine | significant decrease | virtual pentasaccharide concentration (residual anti-factor Xa activity) [1]: 1.04 µg/mL; virtual pentasaccharide concentration (residual anti-factor Xa activity) (ratio 2/1 (0.3 g/l)): 0.49 µg/mL; virtual pentasaccharide concentration (residual anti-factor Xa activity) (ratio 4/1 (0.6 g/l)): 0.29 µg/mL
2 | AT-R393H: human antithrombin (SEQ ID NO:2) with substitution of the amino acid at position 393 by Histidine | significant decrease | 
3 | AT-N135Q-ΔR393: human antithrombin with deletion of position 393 and substitution at 135 by Glutamine (protein, listed as Homo sapiens) HGSPVDICTAKPRDIPMNPMCIYRSPEKKATEDEGSEQKIPEATNRRVWELSKANSRFATTFYQHLADSKNDNDNIFLSPLSISTAFAMTKLGACNDTLQQLMEVFKFDTISEKTSDQIHFFFAKLNCRLYRKAQKSSKLVSANRLFGDKSLTFNETYQDISELVYGAKLQPLDFKENAEQSRAAINKWVSNKTEGRITDVIPSEAINELTVLVLVNTIYFKGLWKSKFSPENTRKELFYKADGESCSASMMYQEGKFRYRRVAEGTQVLELPFKGDDITMVLILPKPEKSLAKVEKELTPEVLQEWLDELEEMMLVVHMPRFRIEDGFSLKEQLQDMGLVDLFSPEKSKLPGIVAEGRDDLYVSDAFHKAFLEVNEEGSEAAASTAVVIAGSLNPNRVTFKANRPFLVFIREVPLNTIIFMGRVANPCVK | significant decrease | 
4 | AT-N135Q-ΔS394: human antithrombin with deletion of position 394 and substitution at 135 by Glutamine (protein, listed as Homo sapiens) HGSPVDICTAKPRDIPMNPMCIYRSPEKKATEDEGSEQKIPEATNRRVWELSKANSRFATTFYQHLADSKNDNDNIFLSPLSISTAFAMTKLGACNDTLQQLMEVFKFDTISEKTSDQIHFFFAKLNCRLYRKAQKSSKLVSANRLFGDKSLTFNETYQDISELVYGAKLQPLDFKENAEQSRAAINKWVSNKTEGRITDVIPSEAINELTVLVLVNTIYFKGLWKSKFSPENTRKELFYKADGESCSASMMYQEGKFRYRRVAEGTQVLELPFKGDDITMVLILPKPEKSLAKVEKELTPEVLQEWLDELEEMMLVVHMPRFRIEDGFSLKEQLQDMGLVDLFSPEKSKLPGIVAEGRDDLYVSDAFHKAFLEVNEEGSEAAASTAVVIAGRLNPNRVTFKANRPFLVFIREVPLNTIIFMGRVANPCVK | significant decrease | 
5 | AT-N135Q-ΔR393-S394: human antithrombin with deletion of positions 393 and 394 and substitution at 135 by Glutamine (protein, listed as Homo sapiens) HGSPVDICTAKPRDIPMNPMCIYRSPEKKATEDEGSEQKIPEATNRRVWELSKANSRFATTFYQHLADSKNDNDNIFLSPLSISTAFAMTKLGACNDTLQQLMEVFKFDTISEKTSDQIHFFFAKLNCRLYRKAQKSSKLVSANRLFGDKSLTFNETYQDISELVYGAKLQPLDFKENAEQSRAAINKWVSNKTEGRITDVIPSEAINELTVLVLVNTIYFKGLWKSKFSPENTRKELFYKADGESCSASMMYQEGKFRYRRVAEGTQVLELPFKGDDITMVLILPKPEKSLAKVEKELTPEVLQEWLDELEEMMLVVHMPRFRIEDGFSLKEQLQDMGLVDLFSPEKSKLPGIVAEGRDDLYVSDAFHKAFLEVNEEGSEAAASTAVVIAGLNPNRVTFKANRPFLVFIREVPLNTIIFMGRVANPCVK | significant decrease | 
6 | AT-ΔR393-S394: human antithrombin with deletion of the amino acids at positions 393 and 394 (protein, listed as Homo sapiens) HGSPVDICTAKPRDIPMNPMCIYRSPEKKATEDEGSEQKIPEATNRRVWELSKANSRFATTFYQHLADSKNDNDNIFLSPLSISTAFAMTKLGACNDTLQQLMEVFKFDTISEKTSDQIHFFFAKLNCRLYRKANKSSKLVSANRLFGDKSLTFNETYQDISELVYGAKLQPLDFKENAEQSRAAINKWVSNKTEGRITDVIPSEAINELTVLVLVNTIYFKGLWKSKFSPENTRKELFYKADGESCSASMMYQEGKFRYRRVAEGTQVLELPFKGDDITMVLILPKPEKSLAKVEKELTPEVLQEWLDELEEMMLVVHMPRFRIEDGFSLKEQLQDMGLVDLFSPEKSKLPGIVAEGRDDLYVSDAFHKAFLEVNEEGSEAAASTAVVIAGLNPNRVTFKANRPFLVFIREVPLNTIIFMGRVANPCVK | significant decrease | 
7 | AT-N135Q-Pro394: human antithrombin with Proline inserted between 393 and 394 and substitution at 135 by Glutamine (protein, listed as Homo sapiens) HGSPVDICTAKPRDIPMNPMCIYRSPEKKATEDEGSEQKIPEATNRRVWELSKANSRFATTFYQHLADSKNDNDNIFLSPLSISTAFAMTKLGACNDTLQQLMEVFKFDTISEKTSDQIHFFFAKLNCRLYRKAQKSSKLVSANRLFGDKSLTFNETYQDISELVYGAKLQPLDFKENAEQSRAAINKWVSNKTEGRITDVIPSEAINELTVLVLVNTIYFKGLWKSKFSPENTRKELFYKADGESCSASMMYQEGKFRYRRVAEGTQVLELPFKGDDITMVLILPKPEKSLAKVEKELTPEVLQEWLDELEEMMLVVHMPRFRIEDGFSLKEQLQDMGLVDLFSPEKSKLPGIVAEGRDDLYVSDAFHKAFLEVNEEGSEAAASTAVVIAGRPSLNPNRVTFKANRPFLVFIREVPLNTIIFMGRVANPCVK | significant decrease | virtual pentasaccharide concentration (residual anti-factor Xa activity) [1]: 1.16 µg/mL; virtual pentasaccharide concentration (residual anti-factor Xa activity) (ratio 2/1 (0.3 g/l)): 0.59 µg/mL; virtual pentasaccharide concentration (residual anti-factor Xa activity) (ratio 4/1 (0.6 g/l)): 0.36 µg/mL
8 | AT-Pro394: human antithrombin with insertion of a Proline between positions 393 and 394 (protein, listed as Homo sapiens) HGSPVDICTAKPRDIPMNPMCIYRSPEKKATEDEGSEQKIPEATNRRVWELSKANSRFATTFYQHLADSKNDNDNIFLSPLSISTAFAMTKLGACNDTLQQLMEVFKFDTISEKTSDQIHFFFAKLNCRLYRKANKSSKLVSANRLFGDKSLTFNETYQDISELVYGAKLQPLDFKENAEQSRAAINKWVSNKTEGRITDVIPSEAINELTVLVLVNTIYFKGLWKSKFSPENTRKELFYKADGESCSASMMYQEGKFRYRRVAEGTQVLELPFKGDDITMVLILPKPEKSLAKVEKELTPEVLQEWLDELEEMMLVVHMPRFRIEDGFSLKEQLQDMGLVDLFSPEKSKLPGIVAEGRDDLYVSDAFHKAFLEVNEEGSEAAASTAVVIAGRPSLNPNRVTFKANRPFLVFIREVPLNTIIFMGRVANPCVK | significant decrease | virtual pentasaccharide concentration at 2 or 4 fold molar excess compared to natural antithrombin (human plasma with 3 μg/ml pentasaccharide): decreases to a level comparable to curative pentasaccharide treatment; effect on anti-factor Xa activity at concentration equal to plasmatic antithrombin concentration (human plasma with 3 μg/ml pentasaccharide, ratio 1/1): significantly decrease
